According to IntAct's records for PubMed 16571665:

B1: Protein phosphatase 2C 77 (Arabidopsis thaliana (Mouse-ear cress)), O04719 (parent)
chain: MDEVSPAVAVPFRPFTDPHAGLRGYCNGESRVTLPESSCSGDGAMKDSSFEINTRQDSLTSSSSAMAGVDISAGDEINGSDEFDPRSMNQSEKKVLSRTESRSLFEFKCVPLYGVTSICGRRPEMEDSVSTIPRFLQVSSSSLLDGRVTNGFNPHLSAHFFGVYDGHGGSQVANYCRERMHLALTEEIVKEKPEFCDGDTWQEKWKKALFNSFMRVDSEIETVAHAPETVGSTSVVAVVFPTHIFVANCGDSRAVLCRGKTPLALSVDHKPDRDDEAARIEAAGGKVIRWNGARVFGVLAMSRSIGDRYLKPSVIPDPEVTSVRRVKEDDCLILASDGLWDVMTNEEVCDLARKRILLWHKKNAMAGEALLPAEKRGEGKDPAAMSAAEYLSKMALQKGSKDNISVVVVDLKGIRKFKSKSLN
partner: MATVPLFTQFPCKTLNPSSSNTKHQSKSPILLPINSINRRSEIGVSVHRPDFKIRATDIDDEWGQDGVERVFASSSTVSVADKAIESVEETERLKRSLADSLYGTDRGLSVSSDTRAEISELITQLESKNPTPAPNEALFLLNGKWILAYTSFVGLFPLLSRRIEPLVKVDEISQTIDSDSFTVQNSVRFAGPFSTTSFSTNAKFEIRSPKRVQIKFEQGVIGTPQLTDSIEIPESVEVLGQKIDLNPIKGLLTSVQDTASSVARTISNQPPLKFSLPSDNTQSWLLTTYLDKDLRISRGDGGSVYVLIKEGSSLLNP

Variants of: B1
Settings: with pap1_arath PAP1, O81439

effect of a mutation on the interaction	Variant
disrupting interaction strength	MDEVSPAVAVPFRPFTDPHAGLRGYCNGESRVTLPESSCSGDGAMKDSSFEINTRQDSLTSSSSAMAGVDISAGDEINGSDEFDPRSMNQSEKKVLSRTESRSLFEFKCVPLYGVTSICGRRPEMEDSVSTIPRFLQVSSSSLLDGRVTNGFNPHLSAHFFGVYDGHDGSQVANYCRERMHLALTEEIVKEKPEFCDGDTWQEKWKKALFNSFMRVDSEIETVAHAPETVGSTSVVAVVFPTHIFVANCGDSRAVLCRGKTPLALSVDHKPDRDDEAARIEAAGGKVIRWNGARVFGVLAMSRSIGDRYLKPSVIPDPEVTSVRRVKEDDCLILASDGLWDVMTNEEVCDLARKRILLWHKKNAMAGEALLPAEKRGEGKDPAAMSAAEYLSKMALQKGSKDNISVVVVDLKGIRKFKSKSLN [G168D]

Variants of: B1
Settings: with pap1_arath PAP1, O81439
Remark: another data set of the same source

effect of a mutation on the interaction	Variant
disrupting interaction	MDEVSPAVAVPFRPFTDPHAGLRGYCNGESRVTLPESSCSGDGAMKDSSFEINTRQDSLTSSSSAMAGVDISAGDEINGSDEFDPRSMNQSEKKVLSRTESRSLFEFKCVPLYGVTSICGRRPEMEDSVSTIPRFLQVSSSSLLDGRVTNGFNPHLSAHFFGVYDGHDGSQVANYCRERMHLALTEEIVKEKPEFCDGDTWQEKWKKALFNSFMRVDSEIETVAHAPETVGSTSVVAVVFPTHIFVANCGDSRAVLCRGKTPLALSVDHKPDRDDEAARIEAAGGKVIRWNGARVFGVLAMSRSIGDRYLKPSVIPDPEVTSVRRVKEDDCLILASDGLWDVMTNEEVCDLARKRILLWHKKNAMAGEALLPAEKRGEGKDPAAMSAAEYLSKMALQKGSKDNISVVVVDLKGIRKFKSKSLN [G168D]
